Measured values taken from patent publication US20150362496A1 (ONCOMATRYX BIOPHARMA S L, published 2015).

B1: 1E8.33 monoclonal antibody (antibody, V domains shown)
VH: EVQLQESGPELVKTGSSVKISCKASGYSFTGYYMHWVKQSQGKSLEWIGYINCYNGATSYNRNFKGKATFTVDTSSSTAYMQFNSLTSGDSAVYYCAIWDYEFHVMDYWGQRTSLTVSS
VL: ENVLTQSPAIMSASLGEKVTMSCRASSSVNYMYWYQQKSDASPKLWIYYTSNLAPGVPARFSGSGSGNSYSLTISSMEGEDADTYYCQQFTSSPWTFGGGTKLEIK
notes: they are variable domains only; also called 1E8.33 mAb; 1E8.33 clone
B2: peptide YNYGTMESYQTEAPR (peptide)
peptide: YNYGTMESYQTEAPR
notes: 15-residue peptide of the proCOL11A1 VAR region; also called the mentioned peptide

Experiments:
[1] = target: T1, proCOL5A1 expressed in SAOS-2 osteosarcoma cells (UniProt P20908 38-1838, limits assumed); test: immunocytochemistry on SAOS-2 cells
T1 construct: Endogenous protein in cells, stained by immunocytochemistry
T1 sequence (P20908 38-1838 limits assumed): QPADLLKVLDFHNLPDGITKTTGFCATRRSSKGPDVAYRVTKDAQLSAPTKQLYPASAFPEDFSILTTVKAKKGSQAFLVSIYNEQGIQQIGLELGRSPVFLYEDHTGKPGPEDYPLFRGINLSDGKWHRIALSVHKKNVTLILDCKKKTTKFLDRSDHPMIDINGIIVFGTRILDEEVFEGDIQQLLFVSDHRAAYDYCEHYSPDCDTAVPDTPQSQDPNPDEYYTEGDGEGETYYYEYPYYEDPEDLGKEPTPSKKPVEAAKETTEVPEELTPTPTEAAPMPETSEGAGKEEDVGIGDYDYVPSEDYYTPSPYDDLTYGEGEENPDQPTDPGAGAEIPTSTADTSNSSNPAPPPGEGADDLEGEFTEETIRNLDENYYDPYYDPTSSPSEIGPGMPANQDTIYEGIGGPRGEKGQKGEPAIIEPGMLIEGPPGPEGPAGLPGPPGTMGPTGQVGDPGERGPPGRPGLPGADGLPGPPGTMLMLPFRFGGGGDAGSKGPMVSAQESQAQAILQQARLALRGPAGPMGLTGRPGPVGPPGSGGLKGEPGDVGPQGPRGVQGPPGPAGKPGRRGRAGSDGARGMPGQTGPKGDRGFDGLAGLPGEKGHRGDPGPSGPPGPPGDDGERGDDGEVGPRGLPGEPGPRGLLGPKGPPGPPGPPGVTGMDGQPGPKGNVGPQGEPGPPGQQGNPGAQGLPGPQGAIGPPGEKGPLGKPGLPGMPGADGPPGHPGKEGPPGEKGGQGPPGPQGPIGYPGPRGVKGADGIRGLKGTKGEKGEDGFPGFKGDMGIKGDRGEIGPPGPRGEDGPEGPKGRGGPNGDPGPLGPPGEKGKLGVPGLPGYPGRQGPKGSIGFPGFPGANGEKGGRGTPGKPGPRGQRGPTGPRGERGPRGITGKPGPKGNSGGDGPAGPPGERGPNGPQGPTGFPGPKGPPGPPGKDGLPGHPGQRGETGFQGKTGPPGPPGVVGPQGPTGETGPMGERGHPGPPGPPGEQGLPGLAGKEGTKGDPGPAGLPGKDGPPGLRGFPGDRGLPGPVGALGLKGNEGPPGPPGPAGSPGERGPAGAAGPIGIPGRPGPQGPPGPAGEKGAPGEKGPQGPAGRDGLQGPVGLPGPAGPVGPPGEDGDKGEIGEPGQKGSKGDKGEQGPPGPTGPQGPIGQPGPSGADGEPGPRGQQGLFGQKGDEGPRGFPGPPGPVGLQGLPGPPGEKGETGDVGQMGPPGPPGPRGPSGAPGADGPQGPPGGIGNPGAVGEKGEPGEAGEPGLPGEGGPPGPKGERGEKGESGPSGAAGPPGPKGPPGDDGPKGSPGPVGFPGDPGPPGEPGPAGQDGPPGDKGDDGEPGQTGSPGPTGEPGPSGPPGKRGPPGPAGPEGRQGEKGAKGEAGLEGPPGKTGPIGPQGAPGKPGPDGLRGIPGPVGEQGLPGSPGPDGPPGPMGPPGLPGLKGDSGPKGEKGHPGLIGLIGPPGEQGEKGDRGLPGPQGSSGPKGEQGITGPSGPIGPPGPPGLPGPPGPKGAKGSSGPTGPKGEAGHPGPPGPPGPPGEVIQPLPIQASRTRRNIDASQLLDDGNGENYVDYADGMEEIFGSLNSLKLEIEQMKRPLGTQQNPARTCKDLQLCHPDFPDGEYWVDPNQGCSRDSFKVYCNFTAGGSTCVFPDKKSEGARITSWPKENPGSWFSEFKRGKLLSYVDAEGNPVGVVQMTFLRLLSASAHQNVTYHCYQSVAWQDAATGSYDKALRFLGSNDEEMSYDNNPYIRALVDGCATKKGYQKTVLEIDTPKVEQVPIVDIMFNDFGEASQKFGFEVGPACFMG

[2] = target: B1; test: peptide blocking of 1E8.33 in Western blot of A204 cells
Description: FIG. 8: 1E8.33 mAb blocking test for locating the epitope, performed by means of Western blot of A204 cells. The detection was performed with a mixture of the antibody and different peptides. Lane 1: negative control without antibody. Lane 2: FQEYNYG. Lane 3: […]. Lane 4: […]. Lane 5: […]. Lane 6: […]. Lane 7: positive control with the unblocked 1E8.33 mAb. Complete blocking was observed only in lane 6.

Row | Binder | binding result [1] | binding result [2]
1 | B1 | no binding | 
2 | B2 |  | binds
